Results from IntAct's records for PubMed 22334672.

B1: mRNA export factor (Human herpesvirus 1 (strain 17) (HHV-1)), P10238 (parent)
chain: MATDIDMLIDLGLDLSDSDLDEDPPEPAESRRDDLESDSSGECSSSDEDMEDPHGEDGPEPILDAARPAVRPSRPEDPGVPSTQTPRPTERQGPNDPQPAPHSVWSRLGARRPSCSPEQHGGKVARLQPPPTKAQPARGGRRGRRRGRGRGGPGAADGLSDPRRRAPRTNRNPGGPRPGAGWTDGPGAPHGEAWRGSEQPDPPGGQRTRGVRQAPPPLMTLAIAPPPADPRAPAPERKAPAADTIDATTRLVLRSISERAAVDRISESFGRSAQVMHDPFGGQPFPAANSPWAPVLAGQGGPFDAETRRVSWETLVAHGPSLYRTFAGNPRAASTAKAMRDCVLRQENFIEALASADETLAWCKMCIHHNLPLRPQDPIIGTTAAVLDNLATRLRPFLQCYLKARGLCGLDELCSRRRLADIKDIASFVFVILARLANRVERGVAEIDYATLGVGVGEKMHFYLPGACMAGLIEILDTHRQECSSRVCELTASHIVAPPYVHGKYFYCNSLF
partner: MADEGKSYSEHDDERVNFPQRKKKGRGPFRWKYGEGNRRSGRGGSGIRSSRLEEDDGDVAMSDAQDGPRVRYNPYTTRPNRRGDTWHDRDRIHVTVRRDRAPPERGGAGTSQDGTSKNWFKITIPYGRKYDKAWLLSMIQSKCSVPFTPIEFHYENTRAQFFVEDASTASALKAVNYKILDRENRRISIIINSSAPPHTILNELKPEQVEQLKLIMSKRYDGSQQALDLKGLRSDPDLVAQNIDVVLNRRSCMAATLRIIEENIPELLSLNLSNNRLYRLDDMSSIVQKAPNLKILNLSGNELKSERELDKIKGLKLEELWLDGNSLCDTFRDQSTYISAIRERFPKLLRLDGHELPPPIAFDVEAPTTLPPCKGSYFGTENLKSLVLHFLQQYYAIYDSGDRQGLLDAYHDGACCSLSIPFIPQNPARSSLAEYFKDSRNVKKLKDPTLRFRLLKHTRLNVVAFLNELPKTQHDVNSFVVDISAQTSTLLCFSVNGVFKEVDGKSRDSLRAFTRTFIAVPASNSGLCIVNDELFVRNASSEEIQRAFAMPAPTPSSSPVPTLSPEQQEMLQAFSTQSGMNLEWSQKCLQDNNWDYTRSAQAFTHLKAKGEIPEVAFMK

Variants of: B1
Details: with nxf1_human NXF1, Q9UBU9

| Variant | effect of a mutation on the interaction |
| --- | --- |
| P465L;G466E | disrupting interaction |
